Measured values as given in patent publication US20060063149A1 (BIOKIT S A, published 2006).

B1: recombinant human lysozyme (Ventria Bioscience) (enzyme)
chain: KVFERCELARTLKRLGMDGYRGISLANWMCLAKWESGYNTRATNYNAGDRSTDYGIFQINSRYWCNDGKTPGAVNACHLSCSALLQDNIADAVACAKRVVRDPQGIRAWVAWRNRCQNRDVRQYVQGCGV
notes: Bought product (159-53LZ-90P); also called huLYS; LyzR
B2: human breast milk lysozyme (enzyme)
chain: KVFERCELARTLKRLGMDGYRGISLANWMCLAKWESGYNTRATNYNAGDRSTDYGIFQINSRYWCNDGKTPGAVNACHLSCSALLQDNIADAVACAKRVVRDPQGIRAWVAWRNRCQNRDVRQYVQGCGV
notes: also called human lysozyme; huLYS

Legend:
[1] = biological target: T1, Tp17-HIS monomers (Treponema pallidum, UniProt P29722 23-156); assay: size-exclusion chromatography of complexes formed in vitro
T1 construct: also called monomeric Tp17-His; not shown: HIS tag from the pET24a vector
T1 sequence: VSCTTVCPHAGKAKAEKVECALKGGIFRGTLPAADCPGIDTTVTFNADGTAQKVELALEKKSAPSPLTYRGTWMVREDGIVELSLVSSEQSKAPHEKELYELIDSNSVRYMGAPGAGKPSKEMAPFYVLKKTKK

[2] = biological target: T2, Tp17-HIS dimers (Treponema pallidum, UniProt P29722 23-156); assay: as above
T2 construct: also called dimeric Tp17-His; not shown: HIS tag from the pET24a vector
T2 sequence: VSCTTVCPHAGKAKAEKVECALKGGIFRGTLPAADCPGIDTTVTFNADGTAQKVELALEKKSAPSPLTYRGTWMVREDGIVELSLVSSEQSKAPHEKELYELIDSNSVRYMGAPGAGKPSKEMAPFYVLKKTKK

[3] = biological target: T3, GST-Tp47 fusion protein (Treponema pallidum, UniProt P29723 20-434); assay: Far Western blot, lysozyme on PVDF membrane
T3 construct: Control protein that shares the GST moiety with GST-Tp17; also called control GST-Tp47 antigen; not shown: GST moiety
T3 sequence: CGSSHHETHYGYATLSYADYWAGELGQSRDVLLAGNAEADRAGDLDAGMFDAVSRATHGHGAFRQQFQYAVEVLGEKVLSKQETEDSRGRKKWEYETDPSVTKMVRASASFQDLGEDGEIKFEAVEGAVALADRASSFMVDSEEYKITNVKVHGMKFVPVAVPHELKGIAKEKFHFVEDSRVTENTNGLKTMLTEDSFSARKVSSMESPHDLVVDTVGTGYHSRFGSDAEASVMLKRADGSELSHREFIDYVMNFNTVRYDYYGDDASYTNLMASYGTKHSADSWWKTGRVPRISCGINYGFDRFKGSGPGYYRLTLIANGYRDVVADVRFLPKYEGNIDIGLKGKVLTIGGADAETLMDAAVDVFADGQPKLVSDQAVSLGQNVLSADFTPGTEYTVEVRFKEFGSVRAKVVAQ

| Binder | binding result [1] | binding result [2] | binding result [3] |
| --- | --- | --- | --- |
| B1 | binds | binds |  |
| B2 |  |  | no binding |
